Data taken from patent US20220306715A1.

Columns and labels:
[1] = molecular target: interleukin-6 (IL-6) receptor; experiment: cell-based or functional assay
anti-IL-6ST antibody = experiment: sandwich ELISA on the MSD platform; capture: plate-bound anti-IL-6ST antibody; detection: anti-IL-12A antibody

An EC50 of induction of apoptosis in IL-6 dependent DS-1 cells cultured 24 hours with IL-6 (caspase 3/7 luciferase assay) [1] of 317 nM was found for tocilizumab (antibody) in this work.

An EC50 (read off the curve) (anti-IL-6ST antibody) of 0.7 µg/mL was found for “mIL-6R-Fc-IL-35 chimeric protein (from UniProt Q00560 23-617; P43431 23-215; P22272 20-364; O35228 19-228) (Fc fusion)” in this work.
